Test results reported in IntAct's records for PubMed 24469399.

B1: NF-kappa-B essential modulator (Mus musculus), O88522 (parent)
chain: MNKHPWKNQLSEMVQPSGGPAEDQDMLGEESSLGKPAMLHLPSEQGTPETLQRCLEENQELRDAIRQSNQMLRERCEELLHFQVSQREEKEFLMCKFQEARKLVERLSLEKLDLRSQREQALKELEQLKKCQQQMAEDKASVKAQVTSLLGELQESQSRLEAATKDRQALEGRIRAVSEQVRQLESEREVLQQQHSVQVDQLRMQNQSVEAALRMERQAASEEKRKLAQLQAAYHQLFQDYDSHIKSSKGMQLEDLRQQLQQAEEALVAKQELIDKLKEEAEQHKIVMETVPVLKAQADIYKADFQAERHAREKLVEKKEYLQEQLEQLQREFNKLKVGCHESARIEDMRKRHVETPQPPLLPAPAHHSFHLALSNQRRSPPEEPPDFCCPKCQYQAPDMDTLQIHVMECIE

Variants of: B1
Settings: with rnf31_mouse Rnf31, Q924T7
Chain of rnf31_mouse Rnf31, Q924T7 (Q924T7 whole entry): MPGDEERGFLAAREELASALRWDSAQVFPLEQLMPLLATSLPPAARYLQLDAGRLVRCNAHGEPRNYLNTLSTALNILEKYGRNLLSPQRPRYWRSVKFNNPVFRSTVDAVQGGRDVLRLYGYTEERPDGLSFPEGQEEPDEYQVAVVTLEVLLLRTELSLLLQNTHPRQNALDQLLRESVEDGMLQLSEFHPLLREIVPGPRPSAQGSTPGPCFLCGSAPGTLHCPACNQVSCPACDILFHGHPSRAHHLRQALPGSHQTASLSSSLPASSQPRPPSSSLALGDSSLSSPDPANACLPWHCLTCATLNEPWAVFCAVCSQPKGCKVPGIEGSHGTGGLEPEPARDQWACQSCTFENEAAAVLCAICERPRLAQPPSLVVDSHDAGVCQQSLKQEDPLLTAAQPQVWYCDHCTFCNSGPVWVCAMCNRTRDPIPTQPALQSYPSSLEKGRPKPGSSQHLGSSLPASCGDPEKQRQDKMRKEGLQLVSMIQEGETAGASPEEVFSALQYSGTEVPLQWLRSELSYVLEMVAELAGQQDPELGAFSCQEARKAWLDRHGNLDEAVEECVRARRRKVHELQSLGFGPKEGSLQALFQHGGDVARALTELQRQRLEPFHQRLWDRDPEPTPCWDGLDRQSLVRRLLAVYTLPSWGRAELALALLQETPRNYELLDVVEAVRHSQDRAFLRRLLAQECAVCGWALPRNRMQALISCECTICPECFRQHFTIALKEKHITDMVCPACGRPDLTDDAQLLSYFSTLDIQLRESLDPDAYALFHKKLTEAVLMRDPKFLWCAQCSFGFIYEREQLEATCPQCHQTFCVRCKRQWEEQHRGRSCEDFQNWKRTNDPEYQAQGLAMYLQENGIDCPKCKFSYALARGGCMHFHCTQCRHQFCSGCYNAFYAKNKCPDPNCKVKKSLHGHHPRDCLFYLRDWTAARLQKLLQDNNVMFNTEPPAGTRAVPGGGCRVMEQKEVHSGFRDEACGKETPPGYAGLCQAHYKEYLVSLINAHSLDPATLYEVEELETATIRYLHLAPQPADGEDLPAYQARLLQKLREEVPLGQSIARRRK

Variant | effect of a mutation on the interaction
MNKHPWKNQLSEMVQPSGGPAEDQDMLGEESSLGKPAMLHLPSEQGTPETLQRCLEENQELRDAIRQSNQMLRERCEELLHFQVSQREEKEFLMCKFQEARKLVERLSLEKLDLRSQREQALKELEQLKKCQQQMAEDKASVKAQVTSLLGELQESQSRLEAATKDRQALEGRIRAVSEQVRQLESEREVLQQQHSVQVDQLRMQNQSVEAALRMERQAASEEKRKLAQLQAAYHQLFQDYDSHIKSSKGMQLEDLRQQLQQAEEALVAKAELIAKLKEEAEQHKIVMETVPVLKAQADIYKADFQAERHAREKLVEKKEYLQEQLEQLQREFNKLKVGCHESARIEDMRKRHVETPQPPLLPAPAHHSFHLALSNQRRSPPEEPPDFCCPKCQYQAPDMDTLQIHVMECIE [Q271A;D275A] | disrupting interaction

Variants of: B1
Settings: with rnf31_mouse Rnf31, Q924T7
Remark: another data set of the same source

Variant | effect of a mutation on the interaction
MNKHPWKNQLSEMVQPSGGPAEDQDMLGEESSLGKPAMLHLPSEQGTPETLQRCLEENQELRDAIRQSNQMLRERCEELLHFQVSQREEKEFLMCKFQEARKLVERLSLEKLDLRSQREQALKELEQLKKCQQQMAEDKASVKAQVTSLLGELQESQSRLEAATKDRQALEGRIRAVSEQVRQLESEREVLQQQHSVQVDQLRMQNQSVEAALRMERQAASEEKRKLAQLQAAYHQLFQDYDSHIKSSKGMQLEDLRQQLQQAEEALVAKQELIAKLKEEAEQHKIVMETVPVLKAQADIYKADFQAERHAREKLVEKKEYLQEQLEQLQREFNKLKVGCHESARIEDMRKRHVETPQPPLLPAPAHHSFHLALSNQRRSPPEEPPDFCCPKCQYQAPDMDTLQIHVMECIE [D275A] | disrupting interaction

Variants of: B1
Settings: with rnf31_mouse Rnf31, Q924T7
Remark: another data set of the same source

Variant | effect of a mutation on the interaction
MNKHPWKNQLSEMVQPSGGPAEDQDMLGEESSLGKPAMLHLPSEQGTPETLQRCLEENQELRDAIRQSNQMLRERCEELLHFQVSQREEKEFLMCKFQEARKLVERLSLEKLDLRSQREQALKELEQLKKCQQQMAEDKASVKAQVTSLLGELQESQSRLEAATKDRQALEGRIRAVSEQVRQLESEREVLQQQHSVQVDQLRMQNQSVEAALRMERQAASEEKRKLAQLQAAYHQLFQDYDSHIKSSKGMQLEDLRQQLQQAEEALVAKAELIDKLKEEAEQHKIVMETVPVLKAQADIYKADFQAERHAREKLVEKKEYLQEQLEQLQREFNKLKVGCHESARIEDMRKRHVETPQPPLLPAPAHHSFHLALSNQRRSPPEEPPDFCCPKCQYQAPDMDTLQIHVMECIE [Q271A] | disrupting interaction
